We go through two substances from article PMC6385258.

For assay [1], the target named is EGF receptor (EGFR) (human (endogenous in MDA-MB-231, MCF-7, MDA-MB-468)) (UniProt P00533). Description: flow cytometry on cells; MDA-MB-231 cells in suspension; QD-EGF 0.06-120 nM (EGF:QD = 0.33) or dye-EGF 0.02-40 nM; 4 °C, 4 h with rocking; PBS with 0.5% BSA; nonspecific binding measured with 2 µM unlabeled EGF and subtracted; one-site fit. Background: In flow cytometry, cells or beads pass a laser one at a time.

The target is the same in assay [2]. Kind of assay: single-molecule counting of quantum dots by calibrated 3D deconvolution microscopy (QDC-3DM); unpatterned MDA-MB-231 cells; QD-EGF at 0.1, 1, 10 or 100 nM for 5 min on ice in serum-free DMEM with 0.8% BSA; washed and fixed.
The target is the same in assay [3]. Description: single-molecule counting of quantum dots by calibrated 3D deconvolution microscopy (QDC-3DM); MDA-MB-231 cells on fibronectin micropatterns; 1 nM QD744-EGF pulse for 5 min, washed, kept in serum-free medium; counted 10 and 30 min after the start of the pulse; also with gefitinib 0-5.1 µM.
The target is the same in assay [4]. Description: single-molecule counting of quantum dots by calibrated 3D deconvolution microscopy (QDC-3DM); unpatterned MDA-MB-468 cells (high EGFR expression); 1 nM QD-EGF for 5 min on ice; washed and fixed.

As usually defined, the Kd is the constant that tells how readily two partners part at equilibrium. In assay [1], “EGF conjugated to a single tetramethylrhodamine dye (ligand)” returned a Kd of 3.2 nM.

In assay [2], “QD-EGF conjugate: epidermal growth factor with a single N-terminal biotin bound to a streptavidin-conjugated quantum dot (ligand)” showed a QD-EGF counts per cell (0.1, 1 and 10 nM QD-EGF) of 0 to 4000 per cell; a mean EGF bound per cell (1 nM QD-EGF) of 80 EGF per cell. Also, in assay [3], the EGF per cell (1 nM QD-EGF) stood at 1270 EGF per cell and the QD-EGF per cell 30 min after the start of a 5 min pulse was determined as 800 per cell. Also, the mean EGF bound per cell (1 nM QD-EGF) in assay [4] turned out to be 922 EGF per cell.
